Results from patent US20040197858A1.

Tests used:
[1] = target: purified α-thrombin derived from plasma (human) (UniProt P00734); assay: cell-based or functional assay
[2] = target: purified recombinant α-thrombin (human) (UniProt P00734); assay: cell-based or functional assay

Inhibition by ATIII: Secondary reaction constant [1]: 0.65 µM⁻¹ min⁻¹ | Inhibition by ATIII: Secondary reaction constant [2]: 0.57 µM⁻¹ min⁻¹
Substance: antithrombin III
